Assay results as given in patent publication US20060009380A1 (L OREAL, published 2006).

Target: T1, transglutaminase 3 (human, UniProt Q08188 2-693, limits assumed)
T1 sequence (looked up): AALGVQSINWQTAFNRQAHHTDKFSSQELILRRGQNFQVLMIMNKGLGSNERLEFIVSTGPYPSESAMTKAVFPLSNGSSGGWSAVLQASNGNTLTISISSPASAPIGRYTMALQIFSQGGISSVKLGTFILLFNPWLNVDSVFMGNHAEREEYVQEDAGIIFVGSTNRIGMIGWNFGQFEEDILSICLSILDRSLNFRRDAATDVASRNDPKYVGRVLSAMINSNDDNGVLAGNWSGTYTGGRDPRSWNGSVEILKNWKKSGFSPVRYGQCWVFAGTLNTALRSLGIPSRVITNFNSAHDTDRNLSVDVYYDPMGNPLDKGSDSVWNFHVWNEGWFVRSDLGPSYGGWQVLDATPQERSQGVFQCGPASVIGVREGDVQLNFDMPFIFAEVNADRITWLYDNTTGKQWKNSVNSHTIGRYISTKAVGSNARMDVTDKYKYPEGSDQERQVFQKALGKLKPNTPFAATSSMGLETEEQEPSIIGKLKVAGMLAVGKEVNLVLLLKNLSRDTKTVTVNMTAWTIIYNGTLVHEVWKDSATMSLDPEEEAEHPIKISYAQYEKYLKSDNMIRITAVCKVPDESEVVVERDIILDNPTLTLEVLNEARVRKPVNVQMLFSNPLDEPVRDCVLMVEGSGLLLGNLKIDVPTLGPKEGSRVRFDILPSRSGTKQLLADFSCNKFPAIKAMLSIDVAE
Assay: affinity chromatography: CLSP on CNBr-sepharose, human epidermis extract loaded with calcium chloride, eluted with EDTA, held protein sequenced
Method: The coupling efficiency was 0.95 mg of polypeptide per milliliter of balls. Human epidermis (0.83 g of abdominal skin obtained from plastic surgery and 100 g of plantar stratum corneum) was homogenized with polytron in 10 ml and 120 ml respectively of 10 mmol of Hepes buffer, pH 7.4, containing 150 mmol of sodium chloride, 0.1% (weight/volume) of triton X100 and a mixture of protease inhibitors (Complete™ EDTA-free of Roche Molecular diluted with […] of depepstatin).
The suspension is then centrifuged at 10,000 g for 10 minutes at 4° C. The supernatant is filtered at 0.22 and adjusted with 2.5 mmol of calcium chloride before passing at ambient temperature through the affinity column. The columns are then washed with 10 volumes of 10 mmol Hepes buffer, pH 7.4, containing 150 mmol of sodium chloride, 0.1% (weight/volume) of triton X100 and a mixture of protease inhibitors. The elution is carried out by using the same buffer that contains 5 mmol of EDTA instead of 2 mmol of calcium chloride.
The eluted proteins are subjected to a denaturing gel electrophoresis (SDS-PAGE) and after migration, they are colored with silver with a silver coloration kit of the Amersham Pharmacia Biotech Company and according to the recommendations of the manufacturer.

- binding result: binds
B1: CLSP (calmodulin-like skin protein), the polypeptide of the invention (other)
chain: AGELTPEEEAQYKKAFSAVDTDGNGTINAQELGAALKATGKNLSEAQLRKLISEVDSDGDGEISFQEFLTAARKARAGLEDLQVAFRAFDQDGDGHITVDELRRAMAGLGQPLPQEELDAMIREADVDQDGRVNYEEFARMLAQE
notes: also called skin protein similar to calmodulin
